Test results published in patent US20240261333A1 (published 2024).

Assays:
Test in all cases: co-IP, anti-FLAG, N-FLAG B3GNT2 cell lysate, mass spectrometry
HNRNPU = biological target: T1, HNRNPU (UniProt Q00839 2-825)
T1 construct: also called NP_114032.2
Procedure: (§1) Cells were plated in 10-cm cell culture dishes and grown to 60-80% confluency. For each condition, two biological replicates were harvested for co-IP. Cells were washed with PBS and 4 mL of lysis buffer (20 mM HEPES, 1% Triton X-100, 150 mM NaCl, 1 mM EDTA, and 10% glycerol) containing protease inhibitor cocktail was added. Cells were scraped and lysate was incubated at 4° C. under rotary agitation for 1 h. Lysate was centrifuged at 14,000×g for 10 min at 4° C. Supernatant was transferred to a new tube and an aliquot was taken as the input. […] For Western blots, 10 μg/mL Chicken Anti-FLAG (Aves labs ET-DY100) and IgY control (R&D Systems AB-101-C) antibodies were biotinylated (Thermo Fisher Scientific 90407) and added to the respective conditions. Lysates with antibodies were incubated at 4° C. under rotary agitation overnight. For each mL of lysate, 50 μL of Pierce Protein A/G Magnetic Beads (Mass spectrometry; Thermo Fisher Scientific 88803) or Pierce Streptavidin Magnetic Beads (Western blot; Thermo Fisher Scientific 88817) was washed twice with lysis buffer. Lysates with antibodies were added to the beads and incubated at 4° C. under rotary agitation for 4 h. Beads were washed with lysis buffer 3 times and resuspended in lysis buffer for storage.
(§2) Magnetic beads were resuspended in 100 mM Tris pH 7.8, reduced, alkylated and digested with trypsin at 37° ° C. overnight. This solution was subjected to solid phase extraction to concentrate the peptides and remove unwanted reagents followed by injection onto a Shimadzu HPLC with fraction collector. Eight fractions were collected and after concentration were injected on a Waters NanoAcquity HPLC equipped with a self-packed Aeris 3 μm C18 analytical column 0.075 mm by 20 cm, (Phenomenex). Peptides were eluted using standard reverse-phase gradients. The effluent from the column was analyzed using a Thermo Orbitrap Elite mass spectrometer (nanospray configuration) operated in a data dependent manner for 54 minutes. The resulting fragmentation spectra were correlated against the known database using Proteome Discover 1.4 (Thermo Fisher Scientific).

RPL22 = RPL22 (UniProt P35268 2-128)
Procedure: as §1, §2

TXN = biological target: T2, TXN (UniProt P10599 2-105)
T2 construct: also called NP_003320.2
T2 sequence (looked up): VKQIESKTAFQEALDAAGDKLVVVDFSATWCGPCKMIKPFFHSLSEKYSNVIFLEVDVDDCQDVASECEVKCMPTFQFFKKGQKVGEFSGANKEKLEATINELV
Procedure: as §1, §2

NCCRP1 = biological target: T3, NCCRP1 (UniProt Q6ZVX7 1-275)
T3 construct: also called NP_001001414.1
T3 sequence (looked up): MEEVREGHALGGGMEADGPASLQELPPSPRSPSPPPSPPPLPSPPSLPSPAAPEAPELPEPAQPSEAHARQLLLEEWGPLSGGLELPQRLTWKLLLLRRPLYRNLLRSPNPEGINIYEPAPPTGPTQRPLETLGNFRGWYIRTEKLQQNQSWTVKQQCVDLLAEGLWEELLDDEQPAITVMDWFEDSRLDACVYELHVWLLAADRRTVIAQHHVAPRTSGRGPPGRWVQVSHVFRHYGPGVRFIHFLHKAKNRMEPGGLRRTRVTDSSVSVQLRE
Procedure: as §1, §2

RPS23 = RPS23 (UniProt P62266 2-143)
Procedure: as §1, §2

RPS2 = RPS2 (UniProt P15880 2-293)
Procedure: as §1, §2

RPL37A = RPL37A (UniProt P61513 1-92)
Procedure: as §1, §2

T1 sequence (Q00839 2-825 limits assumed): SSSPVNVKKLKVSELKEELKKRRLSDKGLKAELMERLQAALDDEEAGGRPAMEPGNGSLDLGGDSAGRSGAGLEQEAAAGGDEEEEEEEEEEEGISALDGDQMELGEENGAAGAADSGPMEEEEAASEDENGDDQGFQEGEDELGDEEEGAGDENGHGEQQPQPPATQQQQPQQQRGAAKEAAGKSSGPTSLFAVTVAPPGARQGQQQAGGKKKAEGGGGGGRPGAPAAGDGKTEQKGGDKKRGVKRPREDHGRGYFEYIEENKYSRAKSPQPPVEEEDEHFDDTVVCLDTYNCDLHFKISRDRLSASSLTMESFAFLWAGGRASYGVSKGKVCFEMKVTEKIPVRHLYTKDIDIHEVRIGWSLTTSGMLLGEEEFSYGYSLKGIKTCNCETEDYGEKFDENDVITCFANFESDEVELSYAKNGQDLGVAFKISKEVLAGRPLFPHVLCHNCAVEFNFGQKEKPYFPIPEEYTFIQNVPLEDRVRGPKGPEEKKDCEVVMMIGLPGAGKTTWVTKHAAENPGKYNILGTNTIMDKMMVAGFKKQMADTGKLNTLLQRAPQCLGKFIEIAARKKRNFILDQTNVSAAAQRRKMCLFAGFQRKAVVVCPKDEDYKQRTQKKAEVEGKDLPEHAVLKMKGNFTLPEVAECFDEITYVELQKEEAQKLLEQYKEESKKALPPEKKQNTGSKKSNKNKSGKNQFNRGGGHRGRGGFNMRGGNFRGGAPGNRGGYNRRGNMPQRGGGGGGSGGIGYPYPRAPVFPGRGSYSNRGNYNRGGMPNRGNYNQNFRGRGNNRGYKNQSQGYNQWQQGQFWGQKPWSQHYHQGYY

B1: N-terminal FLAG tagged B3GNT2 (enzyme, human, UniProt Q9NY97 1-397, looked up)
chain: MSVGRRRIKLLGILMMANVFIYFIMEVSKSSSQEKNGKGEVIIPKEKFWKISTPPEAYWNREQEKLNRQYNPILSMLTNQTGEAGRLSNISHLNYCEPDLRVTSVVTGFNNLPDRFKDFLLYLRCRNYSLLIDQPDKCAKKPFLLLAIKSLTPHFARRQAIRESWGQESNAGNQTVVRVFLLGQTPPEDNHPDLSDMLKFESEKHQDILMWNYRDTFFNLSLKEVLFLRWVSTSCPDTEFVFKGDDDVFVNTHHILNYLNSLSKTKAKDLFIGDVIHNAGPHRDKKLKYYIPEVVYSGLYPPYAGGGGFLYSGHLALRLYHITDQVHLYPIDDVYTGMCLQKLGLVPEKHKGFRTFDIEEKNKNNICSYVDLMLVHSRKPQEMIDIWSQLQSAHLKC
notes: Bait of the co-IP; pulled down with mouse anti-FLAG from cell lysate; also called N-FLAG B3GNT2; N-term FLAG; not shown: FLAG tag at the N-terminus
co-IP mass spectrometry count (HNRNPU): 0
co-IP mass spectrometry count (RPL22): 0
co-IP mass spectrometry count (TXN): 3
co-IP mass spectrometry count (NCCRP1): 4
co-IP mass spectrometry count (RPS23): 9
co-IP mass spectrometry count (RPS2): 13
co-IP mass spectrometry count (RPL37A): 6
